Experimental data reported in the domain aggregation screens of Martell et al. (2025).

Test: soluble fraction after stress (log2 fold change); higher = more stays soluble; pooled small domains, quantitative proteomics
Conditions: stress: pH 4
Summary of the method: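 Following acid stress at pH 4, the amount of each small protein domain still soluble was measured in pooled custom libraries by high-throughput quantitative proteomics. Its fold change, on a log2 scale, is higher when more of the domain stayed soluble. This fold change is taken as a measure of aggregation propensity.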

Sequence | soluble fraction (log2)
HMPPFTYHLERAKRKTVGFIVDERGVTVRAPRWVSVSEIEKMLQTKEAWIQKKLTEFHNWQKE | 0.111
HMTVADMQQKANVKRRNSNSHEAILDATVKLLGSSGYIDFSIEKVASQAGVGKQTIYRWWPSRADLVLEVW | 0.223
HMKNSKIVIQKRHNHILELLKQNRTMDVTVLAERLGVTGATIRRDLKKLEQEGTIVRSFGKVSFVG | ≥ 0.43
HMEDDPIYEQVMIFLLDKQITSAPELERRFKITHQRAIELLAQMEKTGIVSTMGHAGKRDVLT | -0.355
HMNPSVSSDERILLQKALGILSAEQKQIVMLHAVAGIKHREIAKLLDMPIATVLSKYSRAVNKLRHAMEA | -0.298
HMKQLVVVPRVVSLSEGKAREDVGDRGLVVDRVEMDTLRTPYENTVTRQEPAADSRVPVGTRVTLWISPGV | -0.0648
HMTSMYYLNKAVKEGNAKAIRQLLSAGININVRKRETSTPLDFAIKYKQTEIADLLRKHGGKTAEELKAEE | 0.0997
HMSSDLVDYLVKYVAIVDNQEIEIADSKIGTAELGTTVSEVAKTVGNYYPKATVLSVKITGRNQEIVFEY | -1.8
HMPAPMISIQLNGEPRNVQPGISIAALVREIGLEPAKVAVERNREIVPRSTLGDVLIEAGDQLEIVHFVG | 0.0156
HMKNESLMLPRDIDYSRVHGLSNEAIQKLQDALPQSLGQASRIEGITPATLSLLLLYLKKNNKRI | 0.0199
HMKVTGSVQKKKGYYYIVVRLPTKNGTQYEQKQKWFNTKLKATPRNKTAAQVILAEKLTEYGGIV | ≥ 0.43
HMALSLPDDMTIVRKDGSSLEVRLKSRTVTEIHFERISDSETFQFSIDQLDETTRELVEQYPVM | -0.407
HMAPVVELEDVTIVRGKATLLDRVNWVIDETDRWVIVGPNGAGKTTLLQVVSANLHPTSGKAMILDEVL | -0.366
HMPLTPATADAGRFVKQDRKYIRLLAKRYNFTHGDIKSEIDRVSAVLSSNGIDRVPLFLYKEYLEQYLAG | -0.924
HMTVSGNIAGDYKDYLPQKTDVINGMTVTYRMVDDAVYLASWKHAGQNHVFLFNDPVSVERAREMI | -0.965
HMSILSIGLERGMKKGVAWGIAKSILDILEETGPVSEKTREMIVTETDAERLSAWVKKAARSNSEEDFLSK | -1.21
HMPRDQQENIYLLEKGKRLYEEHLGDQRQIIGHRIMIFERILESQDHAQIRRAQSEFAEFLSHYDG | 0.111
HMVTINTASLEKAIADAKAVVKESYTTDSYNAMKAVLDEAEDLLKEEAQDQDTIDAKTEALNAAIEALVKR | -0.337
HMLPADETEARVLNVLGSEPLHVDEIRNQADLPIEKISATLAMMELKGMVRQVGGMNYVAMR | -0.892
HMDDDDPDQEIAQYYEKLRAMNPDEETKQKLSDEINKLSKMMYSSQEAMVSRNYLDTVFSLPWHQF | -1.37
HMEDISQHAVKKLVQEMVMAEDPRDPLSDQQIAENLSRLGLKVARRTVAKYRAMLGIQPSNRRRK | 0.0963
HMDTGPSFATRRQEAFNALTQIAASNKEFMNVAGDVLWKVADFPEAQILAQRWRRIIPPNVLGEA | -0.438
HMIPRNLEDLVRENQIGLVILKIVEIIGEDNIRDLDPETIYFINRILNELNLKKIRNNILSEALPPR | -0.8
HMDVPTEEAILAYNNVPIELAAKFIGWSDITIRYALQEERAPFGMAAQNPKTGTWSYNISPGLLLKYKSGE | -0.39
HMASAEDDLTRRARKLLTTSSMLKTLQPDTGERLQWLPQVVRLLAEGVEAPRIVVLIRRAMESG | -0.00608

Sequence | soluble fraction (log2)
HMTVSIDSLFDKFEDLQEQGLGDKTEEGQELRGLIRAFIEQEHLSVRITRSTSNQELLDMIEEAMQ | -0.551
HMTRLSSREAQVISLVRDGMTNQQIAERLELSPLTIKNHVQNILRKLDVSNRAQAVAKAVKARLI | 0.00472
HMDVTSLDMLRFLMDQHGLRQQDLSELGSQGVVSEILAGKRELNLRHIGALARRFKVPPEVFLPA | -0.619
HMSGEDYLERILMLKEKHGNVRAIDIANSMNFSKPSVSIALHKLSENGYVVIQNNGAIELTEKGLEVAT | -0.0506
HMGSAIAHAIASLPDRYRELLLLKYDTGYSEKEIAQLLGMTEANVKKTIQRAKAKLQTLLDEMEA | -0.354
HMRASQGRNELILSLLRGHELSILELLEGLEKQGVRVARPTLTKDLNELVSRGSVEATAPPRSKNRTYRIP | 0.302
HMGLSENALAMLKQQETVLIRLIDGRGNQGALASINLIVSRILNLDIVDRTPEDLLRVIASEGEQND | -1.54
HMGEWNSVFSVPSSVVDKHLKTASSVYVKVLLVILRNAGNRISDQQISEQLSVPVDEVQEAIRYWNAAGIF | -0.816
HMQVQHVWNRLKRPNGDVLYEINRDHPLVSASLDAAADRGAIETLLRQIEQSLPVNQLYVDMNADEHFE | -0.812
HMAKETLRANIKDYIQKQIASGVYRPGDRIVETQLAREMNVSQAPVREAILELVSLGLLEERPYSGHMVRQ | -0.843
HMEELVGFEEKVRSILTSPLSAKEIKEKTHIEIDTRKLSKMLSELSFIKTEKKNGKKIFRLVS | -0.0997
HMTPEGAYTVSEIVKVINSFADEYKVPFTMHVSGYKYEEIAQQLGLPIGTVKSRIFFARKRLQELLN | -1.03
HMSMDYYNILGVNRNASTGEIKKAYKRASMQHHPDRGGNSDEFIKVQQAYDTLSDNHKRQAYDNP | 0.0506
HMAAPVGLTQRQMEVAALVADGLTNAEIGRRLHITERSAESHLERVRIRLGFRSRAQVAAWFVTQE | -0.493
HMSPLPDRESLGAIEKLISLLGSSEWTVREKATRELGAFGYLARPVLQRELATSGDPEVSRRLERILSNL | -0.00724
HMNKKAAYKDMAGYFAEMKSKDAADILSRLKDEDIIGIFNEMPRDMVAEMLQKMDRDKATTLTRKML | 0.235
HMPLQLPEPMAELARNGETARLAEALKQGLDIDLRDGKGNTLLMIAAYQGRAETVAMLLKAGA | -1.42
HMNVNFVQANLANLPNIQAIYQKGNEMLNDMKRGEAREIDEAYSRVDNGVGTEKDFKVLLSFRDKIIAAMQ | ≥ 0.43
HMSGFPTDAQIVREIRNILPTLENPTPRMVRKALENTFEVDMGESKTKKYINNIIITEYEKWSSVQSIRE | -0.804
HMRRDEDLAHGRELLEKELRKQGLEVSENLKQDKLLEGAKRLGFLEAEDLVVAVGSGKVSAGMAVGRIIG | -0.411
HMSKLIDQELINFFKNQIESKSFRYGVSIEDSYEEIKSNQIKFYGEQEDKLKAIDNAFIELKRERAGIR | -0.293
HMERYSVQVGSFRNMRYAERLKQELQGEDFPAYIEKSGEFNRVRVGKGLTLEEATQLEQVLRKSGYQTVIV | 0.0226
HMRFANGHLIWDTIIELRNAERRINRRALADLTGLKPGVVDDHVERWIEKDQLRRAGNGELEVV | -0.24
HMGTSIMIIIVKPETKKERVNDLIHWIESQNLRTHLSTGDYSTIIGVIGDTSKLDSELIRGLDIVENVKRV | -1.24
HMRLIDVFELSPKNRTVLQLYYYEGYSVTEISKILKISVNGVTSRLSRARSKLKLEMEAAENE | -0.0525

Sequence | soluble fraction (log2)
HMNRNHVFDSNGPDLRLRGTAQQLFEKYLQLGRDATSGGDRVMAEGYFQHAEHYFRILNAMNQAAMQH | -0.0835
HMVSMSFDDYVNDAKEYESEGDKDKAYNSYLEAYKLNKSSEEVLDYLIDNTEDVTLKLNYVYEYLDL | -0.32
HMREGNELLGKEGVTVSELRPAGIALIDGRRTDVVTDGEFVAVDQAVEVVEVSGNRVVVRRS | 0.0769
HMVSYTLPTLHTGKNWYVDFTAYDPAEQKMKRKKYMLDGISKITERRKRAVDIIATVTARLRSGWNPWA | 0.0419
HMKANIGDQVFTQLKDQIINGEWRPGDRIPSEAQLIQLFGVSRGTVRQAVQKLAGEGLIVTRHGEGSFVQG | -0.0317
HMDDSPTARALRTLDLIHNRPGITAAELADRLGVTERAVRRYVLTLRDAGVPVLGTPGRYGGYQVGK | -0.0455
HMSVKVFRDQILLNNDSDKMLQLSFSNLFGQKVLETSISPGKSAISTGNLPPGIYFITTSPATGVMRVII | -0.544
HMTLYITDQMRKILDYVATNQEIDEKAVMDLLSIQRTRAYLIAKKMTDIGLLQVQGRGKTKTYRLAARS | -0.285
HMNFSKEYILVHSYKEIDILDALIVKYEATLVNREFDLFINSYIKINEDYAKLFRDEIISKTSGSMSIKEL | -2.12
HMEALASESVKDKIRKIIDSEDPSRPMSDQRIKEMLKAANIDIARRTVTKYREAMNILSSTKRRQV | -0.168
HMNVEALIGREGRVTDKIEANGYGRVKVDGDSWKAKSANGAEIRQNTDVRILSIDSVIITVEP | 0.22
HMQINDSSVVQKAVNDVIDQNSKAVSDYWDGKEGAAKFLMGQVMKLTRGQANPDLANQLILTRLQQERV | 0.182
HMGKEYERALQQVTKSEIDSDEKLQQQMDALVNSPRISDKEDAWALLLVKKLRNEGVEWDELPDVLSERVQ | -0.856
HMLGIGANVQKIAQERKISLKELSRRAGIPYTTIYNMVKRDSSRVSPENLQKLADALGVEIGKLYG | ≥ 0.43
HMKDESQLVGAEGKAVTPLRPTGVALIGEKRLDVLTEGEFIPRNSDIIVSRVEGNKIIVKLKN | 0.22
HMRLMLITPTEFDEAAEIADNLKDRRAVLMNVEKTDNETARRLIDFLSGVVYALGGKIMRISAQAYVLT | -0.228
HMEDVDTAALEKVIATAKGLNKNDYTATTWTTMQAALTNAEKALEAKKSQTSVDEAAKTLQAAIDGLKKAS | -0.103
HMNAAYDEELDFIFSLSEKGKWEEAEAEIGLLLQKHPEDATLQRIGEWVTTQKILLRQQAVEDRIRS | -0.679
HMLNMSVYDKQLLRAVENNPFISQRELARELHWNVDRVKYYMKKWKDKGGLRHVGSSHKGYWEVLVRIEEK | -0.0578
HMTKQNVVPLMYRMIDTLEQFIKADVPFNIETRLARVERLRETMVSSSVTTSEKFRQVLEAYTIETD | -1.53
HMRVVPEILERAVAVFEALGVDRLPSSTLADRLGYDSPEALADVLRPLGVRPKKYRDGKSTARGYLAADLG | -0.284
HMLSAPMPGTVLEVHVKEGQRVREGQTLVVMEAMKMEHRVQAPRAGVVTKLHYSEGDRVDVGAILVEIG | -1.31
HMTVRLSVSADGKFFWNESQVSEEELFPRLQAEAAKEPQPDLHIRGDKNVRYEFVAQAMAAAQRAGVRKI | -0.423
HMGKSDEIFIQKSALYEELGQPDRALEMIYSALKSDSLNIDVLHRLVTLLINQNKNEDAILYNQKIID | -0.424
HMNKDWQDEVALQRYTMITPLLSEDLDNAKRIAMREKIAQDNLTTARSLYRYEKAYRENGFQGLRPTD | -0.262
